Results as given in patent US20230250157A1 (published 2023).

Tests used:
Test in all cases: ELISA
Khosta2 RBD = molecular target: Khosta2 RBD
Rs4081 RBD = molecular target: Rs4081 RBD
BtKY72 RBD = molecular target: BtKY72 RBD
BM4831 RBD = molecular target: BM4831 RBD
LyRa3 RBD = molecular target: LyRa3 RBD
Yun11 RBD = molecular target: Yun11 RBD
Rf1 RBD = molecular target: Rf1 RBD
RaTG13 RBD = molecular target: RaTG13 RBD
SHC014 RBD = molecular target: SHC014 RBD
RmYN02 RBD = molecular target: RmYN02 RBD
RsSTT200 RBD = molecular target: RsSTT200 RBD
C028 RBD = molecular target: C028 RBD
Pang17 RBD = molecular target: Pang17 RBD

Measured: EC50

B1: M8a-6 (antibody, V domains shown)
VH: QVQLQQPGTELVMPGASVKLSCKTSGYTFTHYWMHWVKQRPGEGLEWIGEIAPSDNYVKYNQKFKGKSTLSVDRSSSTAYMQLSSLTSEDSAVYFCARPDNSGYPVYFDYWGQGTSLTVSS
VL: DIVMTQSQKFMSTSLGDRVSISCKASQDVGTTVAWYQQKPGQSPKLLIYWASTRHTGVPDRFTGTGSGTDYTLTISSVAAEDLALYYCQQHYNTPYTFGGGTKLEIE
> 10 µg/mL: Khosta2 RBD | Rs4081 RBD | BtKY72 RBD | BM4831 RBD | LyRa3 RBD

B2: HSW-1 (antibody, V domains shown)
VH: QVQLQQPGAELVKPGTSMKLSCKASGYTFTSYWMHWVKQRPGQGLEWIGMIHPNSGSTKYNENFKSKATLTVDKSSSTAYMQFSSLTSEDSAVYYCVRSGSYYGTTYDYFDYWGQGTTLTVSS
VL: DIVLTQSPASLAVSLGQRATISCRASESVNIYGNSFMHWYQQKPGQPPKLLIFRASNLESGIPVRFSGSGSRTDFTLTINPVEADDVATYYCHQSNEDPFTFGSGTKLEIK
> 10 µg/mL: Khosta2 RBD | BM4831 RBD | Yun11 RBD

B3: M8a-3 (antibody, V domains shown)
VH: QVQLQQPGAELVLPGASVKLSCKASGYTFTNYWMHWVKQRPGHGLEWIGEIDPFDTYIKINQKFKGKSTLTVDTSSSTAYMQLSSLTSEDSAVYYCARPDSSGYPVYFDYWGQGTTLTVSS
VL: DIVMTQSHKFMSTSVGDRVSITCKASQDVGTYIAWYQQKPGQSPKLLIYWASTRHTGVPDRFTGSGSGTNYTLTISSVQAEDLALYHCQQHYSTPYTFGGGTKLEIK
> 10 µg/mL: BM4831 RBD | Rf1 RBD

B4: M8a-7 (antibody, V domains shown)
VH: QAYLQQSGAEMVRPGASVKMSCKASGYTFNNYNMHWVKQTPSQGLEWIGGFYPGNDDTAYSQKFKGKATLTVDKSSSTAFMHLSSLTSEDSAVYFCARSLGRYYAMDYWGQGTSVTVSS
VL: not shown
> 10 µg/mL: RaTG13 RBD | Khosta2 RBD | Rs4081 RBD | BtKY72 RBD | SHC014 RBD | RmYN02 RBD | RsSTT200 RBD | BM4831 RBD | Rf1 RBD | C028 RBD | Yun11 RBD | Pang17 RBD

B5: M8a-15 (antibody, V domains shown)
VH: QVQLQQSGPELARPGASVKLSCRASGYTVTSFGLSWMKQRTGQGLEWIGEIYPTSKNTYYNDKFRTKATLTADKSSSTAYMELRSLTSEDSAVYFCVLYDYFDYWGQGTTLTVSS
VL: QIVLTQSPAIMSASPGEKVTISCSASSSVSYMYWYQQKTGSSPKPWIYRTSNLASGVPVRFSGSGSGTSYSLTISSMEAEDAATYYCQQYQSYPRTFGGGTKLEIK
> 10 µg/mL: RaTG13 RBD | Khosta2 RBD | Rs4081 RBD | BtKY72 RBD | SHC014 RBD | RsSTT200 RBD | BM4831 RBD | C028 RBD | LyRa3 RBD | Pang17 RBD

B6: M8a-28 (antibody, V domains shown)
VH: QVQLQQPGAELVKPGASVKMSCKASGYNFNHYWISWVKQRPGQGLEWIGDIYPLSHFTTYNEKFTNRATLTVDTSSTTAYMQLNSLTSDDSAVFYCARWDYFDSRTFDYWGQGTTLTVSS
VL: DILLTQFPAILSVSPGERVSFSCRASQTIGTNIHWYQQRINGSPRLLIKYASESISGIPSRFSGSGSGTDFSLSINNVESEDIADYYCQQINSWPLTFGAGTKLDLK
> 10 µg/mL: BM4831 RBD | Pang17 RBD

B7: M8a-25 (antibody, V domains shown)
VH: EVQLQQSVAELVRPGASVKLSCTASGFNIKNTYMHWVKQRPEQGLEWIGRIDPSIDHTRYAPKFQGKAVITAFTSSNTAYLQLSSLTSEDTAIYYCAREGGGNYPYYYAIDYWGQGTSVTVSS
VL: DIQMTQSSSSFSVSLGDRVTITCKASEDIYIRLAWYQQRPGNAPRLLISNAISLETGVPSRFSGSGFGKDHTLSITSLQTEDVATYYCQQYWSTPWTFGGGTKLEIK
> 10 µg/mL: RaTG13 RBD | Khosta2 RBD | Rs4081 RBD | BtKY72 RBD | SHC014 RBD | RsSTT200 RBD | BM4831 RBD | C028 RBD | LyRa3 RBD | Yun11 RBD | Pang17 RBD

B8: M8a-29 (antibody, V domains shown)
VH: EVQLQQSVAELVRPGASVKLSCTASGFNIKNTYMHWVKQRPEQGLEWIGRIDPSIDHTRYAPKFQGKAVITAFTSSNTAYLQLSSLTSEDTAIYYCAREGGGNYPYYYAIDYWGQGTSVTVSS
VL: DIVMTQAAFSNPVTLGTSASISCRSTKSLLHSNGITYLYWYLQKPGQSPQLLIYQMSNLASGVPDRFSSSGSGTDFTLRISRVEAEDVGVYYCAQNLELPYTFGGGTKLEIK
> 10 µg/mL: RaTG13 RBD | Khosta2 RBD | BtKY72 RBD | SHC014 RBD | RmYN02 RBD | RsSTT200 RBD | BM4831 RBD | Rf1 RBD | C028 RBD | LyRa3 RBD | Yun11 RBD | Pang17 RBD

B9: M8a-11 (antibody, V domains shown)
VH: EVQLQQSGPELVKPGASVKIPCKASGYTFTDYNMDWVKQSHEKSLEWIGEIDPNNGDTIYNQKFKGKASLTVDKSSSTAYMELRSLTSEDTAVYYCAKRGYYGSSLWWYFDVWGTGTTVTVSS
VL: DIQMTQSSSSFSVSLGDRVTITCKASEDIYIRLAWYQQRPGNAPRLLISNAISLETGVPSRFSGSGSGKDYTLSITSLQTEDVATYYCQQYWSTPWTFGGGTKLEIK
> 10 µg/mL: RaTG13 RBD | Khosta2 RBD | BtKY72 RBD | SHC014 RBD | RsSTT200 RBD | BM4831 RBD | C028 RBD | LyRa3 RBD | Pang17 RBD

B10: M8a-30 (antibody, V domains shown)
VH: QVHLQQSGPELVKPGASVKISCKASGYGFSSSWMNWVKQRPGKGLEWIGRIYPGDGDTNYNDKFQGKATLTADRSSSTAYMHLTSLTSADSAVYFCARSLLYSFDYWGQGTTLTVSS
VL: DVVVTQTPLSLPVSFGDQVSISCRSSQSLAGSYGHTYLSWYLHKSGQSPQLLIYGISNRFSGVPDRFSGSGSGTDFTLKISTIKPEDLGMYYCLQGTHQPLTFGAGTKLELK
> 10 µg/mL: RaTG13 RBD | Khosta2 RBD | RsSTT200 RBD | BM4831 RBD | C028 RBD
